Results as given in patent US20060105407.

Key:
leptin-dimer kemptide = leptin-dimer kemptide (UniProt P41159)
[1] = molecular target: T1, malic enzyme-monomer kemptide (UniProt P26616)
T1 sequence: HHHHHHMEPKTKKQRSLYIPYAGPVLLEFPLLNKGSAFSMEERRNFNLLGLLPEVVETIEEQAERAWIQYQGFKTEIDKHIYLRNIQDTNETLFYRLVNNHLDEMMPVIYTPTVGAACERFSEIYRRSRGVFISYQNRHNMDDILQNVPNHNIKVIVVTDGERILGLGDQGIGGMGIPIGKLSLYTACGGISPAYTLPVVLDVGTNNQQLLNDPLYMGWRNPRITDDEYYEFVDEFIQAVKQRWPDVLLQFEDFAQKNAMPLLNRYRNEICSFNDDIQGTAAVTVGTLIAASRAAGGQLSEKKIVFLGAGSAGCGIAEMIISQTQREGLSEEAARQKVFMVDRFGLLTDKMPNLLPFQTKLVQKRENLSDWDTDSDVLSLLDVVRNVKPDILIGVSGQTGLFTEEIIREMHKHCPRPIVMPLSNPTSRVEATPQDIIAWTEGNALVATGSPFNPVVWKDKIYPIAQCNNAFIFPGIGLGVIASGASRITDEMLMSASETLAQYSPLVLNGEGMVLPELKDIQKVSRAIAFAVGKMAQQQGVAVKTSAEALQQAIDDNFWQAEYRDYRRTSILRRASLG

leptin-dimer Ab1 = leptin-dimer Ab1 (UniProt P41159)
leptin-monomer Ab1 = leptin-monomer Ab1 (UniProt P41159)
Chain of leptin-monomer Ab1 (P41159 other isoform, or with tags, fused parts or gaps): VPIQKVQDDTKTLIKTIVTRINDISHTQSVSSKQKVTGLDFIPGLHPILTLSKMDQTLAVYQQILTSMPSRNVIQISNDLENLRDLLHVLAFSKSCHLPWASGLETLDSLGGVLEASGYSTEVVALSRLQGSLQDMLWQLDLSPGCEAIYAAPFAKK

Chain of leptin-dimer Ab1 (P41159 other isoform, or with tags, fused parts or gaps): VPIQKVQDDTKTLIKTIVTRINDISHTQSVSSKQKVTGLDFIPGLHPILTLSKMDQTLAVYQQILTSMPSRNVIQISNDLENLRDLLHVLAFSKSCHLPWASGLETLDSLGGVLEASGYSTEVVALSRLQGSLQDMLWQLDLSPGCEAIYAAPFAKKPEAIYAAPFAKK
Chain of leptin-dimer kemptide (P41159 other isoform, or with tags, fused parts or gaps): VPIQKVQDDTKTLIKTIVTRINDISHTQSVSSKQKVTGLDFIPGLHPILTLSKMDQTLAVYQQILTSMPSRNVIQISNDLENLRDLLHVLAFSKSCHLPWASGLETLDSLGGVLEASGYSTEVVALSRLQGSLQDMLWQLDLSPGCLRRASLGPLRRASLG

Substance | fluorometric analysis of phosphorylation on protein chip, 10-fold diluted spots (leptin-dimer kemptide) | fluorometric analysis of phosphorylation on protein chip (Cy3-labeled anti-phosphorylation serine antibody) [1] | fluorometric analysis of phosphorylation on protein chip (Cy5-labeled anti-phosphorylation tyrosine antibody) (leptin-dimer Ab1) | fluorometric analysis of phosphorylation on protein chip (Cy5-labeled anti-phosphorylation tyrosine antibody) (leptin-monomer Ab1)
protein kinase A | In a diluted state as shown by 2 and 4, the dimer showed a higher reactivity than the monomer | the protein kinase A showed a specific interaction with the kemptide of a form fused with the leptin or malic enzyme |  | 
Ab1 kinase |  |  | the Ab1 kinase showed a specific interaction with the Ab1 monomer and dimer fused with leptin | the Ab1 kinase showed a specific interaction with the Ab1 monomer and dimer fused with leptin
